Series [1] concerns COS-7 cells. Put plainly: Enzymatic activity confirmation of ALuc (section 3-1, 3-2). The series is classed as cell-based, African monkey. Particulars: vs conventional copepod luciferases. The protocol:
First, using a known lipid reagent for gene introduction, an expression vector encoding ALuc is introduced into African monkey-derived COS-7 cells; as a control, an expression vector having a known GLuc without any mutation into the cells is also introduced in the same manner. At a predetermined time (from 10 to 20 hours, for example, 16 hours) after the introduction of the vector, a cell lysate is prepared using a known lysis reagent.
Thereafter, the cell lysate is mixed with a known substrate solution containing coelenterazine, and its color intensity, temporal stability in luminescence, etc., are measured.
The luminescence intensity may be found by measuring the intensity at a specific wavelength using a known luminescence spectrophotometer after addition of a known substrate. By performing the measurement every minute, the temporal stability in luminescence can be evaluated. To measure a shift to a longer wavelength, scanning of the entire wavelength is necessary.

Series [2] can be described thus: Prolonged activity stability of ALucs secreted in medium (Example 1-19). Particulars: Day 0 to Day 25. Type of series: physicochemical. The protocol: The prolonged activity stability of the artificial luciferases (ALucs) developed in the present invention was examined. First, a plasmid expressing each artificial luciferase (ALuc16, ALuc22, ALuc23, ALuc24, ALuc25, and ALuc30) (in the figure, each is referred to as A16, A22, A23, A24, A25, and A30) was introduced into COS-7 cells, and then culturing was continued for 24 hours. By the culturing, each artificial luciferase was secreted into the medium. The artificial luciferase secreted in the medium was collected, and a difference in enzymatic activity was measured under the same conditions in the following manner. On the first day (Day 0), 50 μL of assay solution (containing native coelenterazine, produced by Promega) was added to 5 μL of each medium, and the luminescence value (enzymatic activity) was measured using an LAS-4000 (produced by FujiFilm). In the same manner, the luminescence value on Day 8, Day 16, and Day 25 was compared with the luminescence value on Day 0 (FIG. 19 (A)).

The test system of series [3] is COS-7 cells. In words: Luminescence stability of ALucs after substrate injection (Example 1-3). Type of series: cell-based, African green monkey. As to conditions: Promega lysis and reaction solution. The protocol:
The luminescence stability of the artificial luciferases (ALucs) of the present invention was examined in various respects (FIG. 3). COS-7 cells containing each luciferase gene were cultured for 9 hours, and treated with a cell lysis solution produced by Promega for 20 minutes. Temporal changes in luciferase luminescence intensity after the introduction of a substrate-containing reaction solution produced by Promega were observed every five minutes (FIG. 3A).
This experiment was expanded to artificial luciferases ALuc16 to ALuc25 (FIG. 3BC).

Series [4] in a line: Heat resistance of ALucs in lysate (Example 1-4). As to conditions: for change of luminescence intensity by heating: 80° C. for 10 minutes. The series is classed as physicochemical. The protocol: The heat resistance and degree of extracellular secretion of artificial luciferases of the present invention were measured (FIG. 4). First, to measure heat resistance, COS-7 cells containing each luciferase were lysed in cell lysis solutions produced by Promega to prepare lysates. Subsequently, same samples were allowed to stand at room temperature or heated at 80° C. for 10 minutes, and changes in luminescence intensity were compared by using a (substrate-containing) reaction solution produced by Promega.

For series [5], the system named is COS-7 cells. Put plainly: Comparison of luminescence intensity of ALucs (Example 1-2). Type of series: cell-based, African green monkey. Particulars: COS-7 cultured overnight, Promega assay solution, LAS-4000. The text has this:
The artificial luciferase (ALuc) genes synthesized by the above process were subcloned into mammalian cell expression vectors (pcDNA3.1 (+)). Each expression vector was transfected with African green monkey kidney-derived COS-7 cells, and the luminescence intensity, luminescence stability, and red-shifted degree of artificial luciferases (ALucs) were compared (FIGS. 2 to 5).
First, the luminescence intensity of artificial luciferases (ALucs) was compared (FIG. 2). For the comparison, COS-7 cells containing a vector encoding each luciferase were cultured overnight, and then the relative luminescence intensity was measured by using an assay solution, which is a mixture of a cell lysis solution and a substrate, produced by Promega, and a luminescence image analyzer (LAS-4000).

For series [6], the system named is COS-7 cells. Put plainly: Degree of extracellular secretion of ALucs (Example 1-4). The series is classed as cell-based, African green monkey. Particulars: luminescence intensity of the medium, overnight culture. The protocol: Further, each luciferase (ALuc) was introduced into COS-7 cells, culturing was performed overnight, and then the amount of each luciferase (ALuc) secreted from the cells was measured based on the luminescence intensity of the medium (FIG. 4B).

In series [7] the test system is COS-7 cells. In words: Luminescence of ALuc25 to ALuc32 in lysate and medium (Example 1-18). Particulars: 20 hours after plasmid introduction. Type of series: cell-based. The protocol:
After the insertion of a gene encoding an enzyme sequence as mentioned above into a mammalian expression vector (pcDNA3.1 (+)), each plasmid was introduced into COS-7 cells. By the transformation of these cells, each luciferase was expressed, and some of the luciferase was secreted out of the cells and some of the luciferase retained in the cells. 20 hours after the plasmid introduction, media of the cells were sampled, and the remaining cells were lysed with a lysis buffer (lysate preparation). Immediately after 50 μL of assay solution (containing a substrate) was simultaneously added to each prepared medium (5 μL) or lysate (5 μL), the luminescence value was measured using a luminescence analyzer (LAS-4000; FujiFilm) (n=3) (FIG. 18).

The subject of series [8] is COS-7 cells. Put plainly: Luminescence intensity of tag-containing ALucs secreted into medium (Example 1-21). Type of series: cell-based. Particulars: culturing one day, Promega kit with nCTZ. The protocol: To compare the luminescence intensity of novel luciferases, a comparison experiment was performed under the same conditions as Example 1-2 (COS-7 cells, culturing for one day, using an assay kit produced by Promega) (FIG. 21 (B)). Finally, the luminescence intensity of each luciferase secreted into the medium was compared using an assay kit (containing native coelenterazine (nCTZ)) produced by Promega.

Series [9] in a line: Temporal change in luminescence after substrate injection, medium 25 days after expression (Example 1-19). Particulars: for time of maximum luminescence value after infusion of coelenterazine: after long-term conservation (25 days); for temporal change of luminescence after substrate injection: medium 25 days after expression. Type of series: biochemical. The protocol:
50 μL of an assay solution (containing native coelenterazine, produced by Promega) was added to 5 μL of each medium 25 days after the expression, and the luminescence value (enzymatic activity) was measured using an LAS-4000 (produced by FujiFilm).

Series [10] relates to COS-7 cells. Put plainly: Luminescence characteristics of tag-containing ALucs (Example 1-22). Type of series: cell-based. Particulars: medium two days after gene transfer. How it is done: To compare the relative luminescence intensity of these luciferases, the following experiment was conducted. First, a gene encoding each luciferase was subcloned into pcDNA3.1 (+), which is a eukaryotic expression vector, and each vector was introduced into COS-7 cells. Two days after gene transfer, the relative luminescence intensity of luciferase secreted into each medium was compared using a luminescence reagent produced by Promega.

B1: ALuc22: artificial luciferase, SEQ ID NO: 15 (protein)
chain: MMGVKLIFAVLCVAVAQANATINENFEDIDLVAIGGSFADLETDLFTIVEDMNVISRDTDVDANRGGRGRRGKLPGKKLPLEVLKELEANAQKAGCTRGCLICLSHIKCTAKMKKWLPGRCESWEGDKETGQGGIGEAIVDIPEIPGFKDLEPMEQFIAQVDLCVDCTTGCLKGLANVKCSDLLKKWLPSRCATFASKIQAQVDKIKGAGGS
modifications: Synthetic ALuc22
As to B1, the “luminescence stability (general statement)” value in series [1] was “remarkably stable luminescence signals”. The “prolonged enzymatic activity stability” value in [2] is on record as “significant decrease in enzymatic activity”. Further, in [3], the “luminescence intensity (initial)” value was “advantageous initial luminescence intensity” and the “luminescence stability / sustainability after substrate injection” value is on record as “decreased to about half of the original luminescence intensity after 6 minutes”. In addition, in [4], the “change of luminescence intensity by heating” value (“change … by heating” below) was “significantly decreased”. Further, the “reduction of luminescence intensity by heating” value in series [4] (80° C. for 10 minutes vs room temperature) is listed as “about 40%”. The “luminescence intensity higher than that of conventional GLuc, Renilla luciferase and MpLuc4” value (shortened to “luminescence intensity higher than that”) in series [5] is listed as “about 50 folds”. Also, in [6], the extracellular secretion entry is “low extracellular secretion”.

B2: ALuc25: artificial luciferase, SEQ ID NO: 17 (protein)
chain: MMGVKLIFAVLCVAVAQANATINENFEDIDLVAIGGSFADLETDLFTIVEDMNVISRDTDVDANRGGRGRRGKLPGKKLPLEVLKELEANAQKAGCTRGCLICLSHIKCTAKMKKWLPGRCESWEGDKETGQGGIGEAIVDIPEIPGFKELAPMEQFIAQVDLCADCTTGCLKGLANVKCSALLKKWLPSRCAGFADKIQAQVDTIKGAGGS
modifications: Synthetic ALuc25
As for B2, the “luminescence stability (general statement)” value in [1] is “remarkably stable luminescence signals”. Moreover, in series [2], the “prolonged enzymatic activity stability” value was “maintained stable enzymatic activity until Day 25”. Further, the “luminescence value from lysate” value in series [7] was “extremely higher than those of conventional GLuc and MpLuc4”. Moreover, in series [3], the “luminescence intensity (initial)” value is “advantageous initial luminescence intensity”. Also, the “change … by heating” value in series [4] is on record as “a remarkable reduction in luminescence intensity that may be due to heating was not observed”. Also, the “luminescence intensity higher than that” value in series [5] was “about 50 folds”. Moreover, in series [6], the extracellular secretion entry is “low extracellular secretion”.

B3: ALuc30: artificial luciferase containing a His tag, SEQ ID NO: 32 (protein)
chain: MMGIKVLFALICFALVQANHHHHHHHHDIVGVEGKFGTTDLETDLFTIVEDMNVISRDTDVDANRADRGRRGKLPGKKLPLEVLKELEANAQKAGCTRGCLICLSHIKCTAKMKKWLPGRCESWEGDKETGQGGIGEAIVDIPEIPGFKELAPMEQFIAQVDLCADCTTGCLKGLANVKCSALLKKWLPSRCAGFADKIQAQVDTIKGAGGS
modifications: His tag; Synthetic Aluc30
For B3, the “luminescence stability (general statement)” value in series [1] is “remarkably stable luminescence signals”. The “luminescence intensity of luciferase secreted into the medium” value in [8] is “relatively high luminescence intensity”. For the same molecule, in [9], the “time of maximum luminescence value after infusion of coelenterazine” value amounted to 12 min and the “temporal change of luminescence after substrate injection” value is on record as “several times higher”. Moreover, the “prolonged enzymatic activity stability” value in series [2] was “maintained stable enzymatic activity until Day 25”. Besides, in [7], the “luminescence from cell medium” value is “strong bioluminescence”; the “luminescence value from lysate” value is “extremely higher than those of conventional GLuc and MpLuc4”.

B4: ALuc32: artificial luciferase containing a c-Myc-tag, SEQ ID NO: 34 (protein)
chain: MMGIKVLFALICFALVQANEQKLISEEDLVGVEGKFGTTDLETDLFTIVEDMNVISRDTDVDANRADRGRRGKLPGKKLPLEVLKELEANAQKAGCTRGCLICLSHIKCTAKMKKWLPGRCESWEGDKETGQGGIGEAIVDIPEIPGFKELAPMEQFIAQVDLCADCTTGCLKGLANVKCSALLKKWLPSRCAGFADKIQAQVDTIKGAGGS
modifications: c-Myc tag; Synthetic ALuc32
B4: the “luminescence stability (general statement)” value in series [1] is listed as “remarkably stable luminescence signals”. The relative luminescence intensity result in series [10] is reported as “relatively poor luminescence intensity”.

B5: ALuc23: artificial luciferase, SEQ ID NO: 16 (protein)
chain: MMGIKVLFALICFALVQANPTENKDDIDIVGVEGKFGTTDLETDLFTIVEDMNVISRDTDVDANRADRGRRGKLPGKKLPLEVLKELEANAQKAGCTRGCLICLSHIKCTAKMKKWLPGRCESWEGDKETGQGGIGEAIVDIPEIPGFKELAPMEQFIAQVDLCADCTTGCLKGLANVKCSALLKKWLPSRCAGFADKIQAQVDTIKGAGGS
modifications: Synthetic ALuc23
As for B5, the “luminescence stability (general statement)” value in series [1] is on record as “remarkably stable luminescence signals”. In series [9], the “time of maximum luminescence value after infusion of coelenterazine” value was found to be 12 min and the “temporal change of luminescence after substrate injection” value is listed as “several times higher”. Further, in series [3], the “luminescence intensity (initial)” value is “advantageous initial luminescence intensity”. Besides, in [4], the “change … by heating” value is “a remarkable reduction in luminescence intensity that may be due to heating was not observed”. For the same molecule, the “luminescence intensity higher than that” value in series [5] is reported as “about 50 folds”. Besides, in series [6], the extracellular secretion entry was “relatively high extracellular secretion”.

These data come from patent US10533231B2, “Artificial bioluminescent enzyme” (NATIONAL INSTITUTE OF ADVANCED INDUSTRIAL SCIENCE AND …, priority 2012, dated 2020).
